# Reference: US11407825B2, “NaPi2b-targeted polymer antibody-drug conjugates and methods of use thereof” (Mersana Therapeutics, Inc., priority 2018, dated 2022)
# B1: XMT-1536: about 10-15 molecules of auristatin F-hydroxypropyl amide conjugated to a cysteine moiety of NaPi2b monoclonal antibody XMT-1535 via a PHF scaffold (conjugate, chains of the INN, looked up)
# VH: QVQLVQSGAEVVKPGASVKMSCKASGYTFTGYNIHWVKQAPGQGLEWIGAIYPGNGDTSYKQKFRGRATLTADTSTSTVYMELSSLRSEDSAVYYCARGETARATFAYWGQGTLVTVSS
# VL: DIQMTQSPSSLSASVGDRVTITCSASQDIGNFLNWYQQKPGKTVKVLIYYTSSLYSGVPSRFSGSGSGTDYTLTISSLQPEDFATYYCQQYSKLPLTFGQGTKLELK
# modifications: auristatin F-hydroxypropyl amide via PHF scaffold
# notes: about 10-15 molecules of auristatin F-hydroxypropyl amide conjugated to a cysteine moiety of NaPi2b monoclonal antibody XMT-1535 via a PHF scaffold
# Test: Phase 1b dose escalation study of XMT-1536: safety and tolerability (adverse events, DLT)
# Format: in vivo, human
# Text: The study presented herein is an open label, multi-center Phase 1b study of XMT-1536 administered as an intravenous infusion once every three or four weeks. The dose escalation (DES) part of the study will establish the maximum tolerated dose (MTD) or recommended Phase 2 dose (RP2D) for XMT-1536 in patients with a number of tumor types likely to express NaPi2b, with a focus on patients with platinum-resistant ovarian cancer and non-squamous non-small cell lung cancer (NSCLC). […] The RP2D may differ from the MTD and may take into account tolerability, pharmacokinetic and pharmacodynamic measures, and efficacy of XMT-1536 based on RECIST 1.1. After the first cycle, patients may continue to receive XMT-1536 until disease progression provided the drug is well-tolerated and patients continue to derive clinical benefit in the opinion of the Investigator. The DES segment of the study utilized an accelerated titration design. The first 3-week cycle of treatment constitutes the dose limiting toxicity (DLT) evaluation period. For the first two dose levels, a minimum of 1 patient was treated at each dose level. If this patient experiences a treatment-emergent adverse event of Grade 2 or higher, 2 additional patients will be added at this dose level, and the study will subsequently follow a 3+3 design, as described below. […] Starting with Dose Level 3, the study will follow a standard 3+3 design, with 3 patients enrolled initially at each dose level. […] However, in the event of 1 DLT, 3 additional patients will be enrolled at the same dose level. Any dose level with 2 or more DLTs will be considered to exceed the MTD and subsequent patients will be enrolled at lower dose level(s). After the first cycle, patients may continue to receive XMT-1536 until disease progression if the drug is well-tolerated and patients continue to derive clinical benefit in the opinion of the Investigator.
# After an August 2018 protocol amendment, each cycle will be 4-week (28 day) dose cycle. The first two, 4-week cycles of treatment (56 days) constitutes the dose limiting toxicity (DLT) evaluation period. Beginning with this amendment, up to 10 patients will be enrolled for evaluation at 20.0 mg/m^2 under the new 4-week cycle dose regimen. If that dose is cleared by the SRC, subsequent dose groups will follow a modified 3+3 design. Three patients will be enrolled initially and if toxicity issues arise, the SRC will review all pertinent data and may decide to add more patients to fully evaluate a dose in question and/or lower the dose. […] The observation period for DLTs is 56 days, between Day 1 through the end of Cycle 2 which includes the pre-dose assessments before receiving the Cycle 3 dose. A maximum of ten patients will be enrolled per dose level prior to the SRM. that will be conducted no later than 5 days after at least the sixth patient dosed in each level has completed Cycle 2, Day 28 evaluations. The data available for the patients dosed in all prior will be factored into the data review for each applicable dose escalation SRM. Any dose level with 2 or more DLTs occurring in 6 or fewer treated patients will be considered to exceed the MTD and subsequent patients will be enrolled at lower dose level(s). After the second cycle, patients may continue to receive XMT-1536 until disease progression if the drug is well-tolerated and patients continue to derive clinical benefit in the opinion of the Investigator. After completion of DES, the EXP segment of the study will be opened.
# All adverse events will be graded according to the National Cancer Institute (NCI) Common Terminology Criteria version (CTCAE v4.03). The observation period for DLTs is 56 days, between Day 1 through end of Cycle 2 which includes the pre-dose assessments before receiving the Cycle 3 dose. […]
molecule,measurement,setting,value
B1,number of DLT,"30 mg/m^2, 28-day cycle, as of August 2019",One
same,number of DLT,"30 mg/m^2, 28-day cycle, as of February 2019",one
same,number of DLT,"36 mg/m^2, 28-day cycle, as of August 2019",one
same,number of DLT,"40 mg/m^2, 21-day cycle, as of February 2019",One
same,possible treatment related SAE,DL4 (20 mg/m^2),Grade 3 cardiac failure congestion
same,SAE related to study drug,"DL 4, 21-day cycle, as of February 2019",congestive heart failure
same,possible treatment related SAE,DL5 (30 mg/m^2),Grade 2 pyrexia
same,SAE related to study drug,"DL 5, 30 mg/m^2, 21-day cycle, as of February 2019",pyrexia
same,ALT or bilirubin elevation,DL 5A,no elevation of ALT or bilirubin
same,time for AST elevation to return to Grade 1,DL 5A,≤ 13 days
same,time for AST elevation to return to Grade 2,DL 5A,≤ 7 days
same,finding accompanying AST elevation,"DL 5A, alkaline phosphatase",Grade 1 alkaline phosphatase elevation
same,dose limiting toxicity,"DL 5A, cycle 1, day 8",Grade 3 AST
same,bilirubin elevation,DL6,no elevation of bilirubin
same,time for ALT elevation to resolve to Grade 1,DL6,≤ 8 days
same,time for AST elevation to return to Grade 1,DL6,≤ 21 days
same,finding accompanying AST elevation,"DL6, ALT",Grade 2 ALT elevation
same,finding accompanying AST elevation,"DL6, alkaline phosphatase",Grade 1 alkaline phosphatase elevation
same,dose limiting toxicity,"DL6, cycle 1, day 8",Grade 3 AST
same,"Aspartate aminotransferase (AST) increased Grade 1, patients","TRAE, N = 37, May 10, 2019",3
same,"Aspartate aminotransferase (AST) increased Grade 1, percent of patients","TRAE, N = 37, May 10, 2019",(8) %
same,"Aspartate aminotransferase (AST) increased Grade 2, patients","TRAE, N = 37, May 10, 2019",2
same,"Aspartate aminotransferase (AST) increased Grade 2, percent of patients","TRAE, N = 37, May 10, 2019",(5) %
same,"Aspartate aminotransferase (AST) increased Grade 3, patients","TRAE, N = 37, May 10, 2019",4
same,"Aspartate aminotransferase (AST) increased Grade 3, percent of patients","TRAE, N = 37, May 10, 2019",11%
same,"Aspartate aminotransferase (AST) increased Total, patients","TRAE, N = 37, May 10, 2019",9
same,"Aspartate aminotransferase (AST) increased Total, percent of patients","TRAE, N = 37, May 10, 2019",(24) %
same,"Blood alkaline phosphatase increased Grade 1, patients","TRAE, N = 37, May 10, 2019",6
same,"Blood alkaline phosphatase increased Grade 1, percent of patients","TRAE, N = 37, May 10, 2019",(16) %
same,"Blood alkaline phosphatase increased Grade 2, patients","TRAE, N = 37, May 10, 2019",0
same,"Blood alkaline phosphatase increased Grade 3, patients","TRAE, N = 37, May 10, 2019",0
same,"Blood alkaline phosphatase increased Total, patients","TRAE, N = 37, May 10, 2019",6
same,"Blood alkaline phosphatase increased Total, percent of patients","TRAE, N = 37, May 10, 2019",(16) %
same,"Decreased appetite Grade 1, patients","TRAE, N = 37, May 10, 2019",1
same,"Decreased appetite Grade 1, percent of patients","TRAE, N = 37, May 10, 2019",(3) %
same,"Decreased appetite Grade 2, patients","TRAE, N = 37, May 10, 2019",6
same,"Decreased appetite Grade 2, percent of patients","TRAE, N = 37, May 10, 2019",(16) %
same,"Decreased appetite Grade 3, patients","TRAE, N = 37, May 10, 2019",0
same,"Decreased appetite Total, patients","TRAE, N = 37, May 10, 2019",7
same,"Decreased appetite Total, percent of patients","TRAE, N = 37, May 10, 2019",(19) %
same,"Fatigue Grade 1, patients","TRAE, N = 37, May 10, 2019",4
same,"Fatigue Grade 1, percent of patients","TRAE, N = 37, May 10, 2019",(11) %
same,"Fatigue Grade 2, patients","TRAE, N = 37, May 10, 2019",7
same,"Fatigue Grade 2, percent of patients","TRAE, N = 37, May 10, 2019",(19) %
same,"Fatigue Grade 3, patients","TRAE, N = 37, May 10, 2019",0
same,"Fatigue Total, patients","TRAE, N = 37, May 10, 2019",11
same,"Fatigue Total, percent of patients","TRAE, N = 37, May 10, 2019",(30) %
same,"Gamma-glutamyltransferase (GGT) increased Grade 1, patients","TRAE, N = 37, May 10, 2019",3
same,"Gamma-glutamyltransferase (GGT) increased Grade 1, percent of patients","TRAE, N = 37, May 10, 2019",(8) %
same,"Gamma-glutamyltransferase (GGT) increased Grade 2, patients","TRAE, N = 37, May 10, 2019",1
same,"Gamma-glutamyltransferase (GGT) increased Grade 2, percent of patients","TRAE, N = 37, May 10, 2019",(3) %
same,"Gamma-glutamyltransferase (GGT) increased Grade 3, patients","TRAE, N = 37, May 10, 2019",0
same,"Gamma-glutamyltransferase (GGT) increased Total, patients","TRAE, N = 37, May 10, 2019",4
same,"Gamma-glutamyltransferase (GGT) increased Total, percent of patients","TRAE, N = 37, May 10, 2019",(11) %
same,"Headache Grade 1, patients","TRAE, N = 37, May 10, 2019",5
same,"Headache Grade 1, percent of patients","TRAE, N = 37, May 10, 2019",(14) %
same,"Headache Grade 2, patients","TRAE, N = 37, May 10, 2019",5
same,"Headache Grade 2, percent of patients","TRAE, N = 37, May 10, 2019",(14) %
same,"Headache Grade 3, patients","TRAE, N = 37, May 10, 2019",0
same,"Headache Total, patients","TRAE, N = 37, May 10, 2019",10
same,"Headache Total, percent of patients","TRAE, N = 37, May 10, 2019",(27) %
same,"Myalgia Grade 1, patients","TRAE, N = 37, May 10, 2019",3
same,"Myalgia Grade 1, percent of patients","TRAE, N = 37, May 10, 2019",(8) %
same,"Myalgia Grade 2, patients","TRAE, N = 37, May 10, 2019",1
same,"Myalgia Grade 2, percent of patients","TRAE, N = 37, May 10, 2019",(3) %
same,"Myalgia Grade 3, patients","TRAE, N = 37, May 10, 2019",0
same,"Myalgia Total, patients","TRAE, N = 37, May 10, 2019",4
same,"Myalgia Total, percent of patients","TRAE, N = 37, May 10, 2019",(11) %
same,"Nausea Grade 1, patients","TRAE, N = 37, May 10, 2019",12
same,"Nausea Grade 1, percent of patients","TRAE, N = 37, May 10, 2019",(32) %
same,"Nausea Grade 2, patients","TRAE, N = 37, May 10, 2019",2
same,"Nausea Grade 2, percent of patients","TRAE, N = 37, May 10, 2019",(5) %
same,"Nausea Grade 3, patients","TRAE, N = 37, May 10, 2019",0
same,"Nausea Total, patients","TRAE, N = 37, May 10, 2019",14
same,"Nausea Total, percent of patients","TRAE, N = 37, May 10, 2019",(38) %
same,"Pyrexia Grade 1, patients","TRAE, N = 37, May 10, 2019",3
same,"Pyrexia Grade 1, percent of patients","TRAE, N = 37, May 10, 2019",(8) %
same,"Pyrexia Grade 2, patients","TRAE, N = 37, May 10, 2019",1
same,"Pyrexia Grade 2, percent of patients","TRAE, N = 37, May 10, 2019",(3) %
same,"Pyrexia Grade 3, patients","TRAE, N = 37, May 10, 2019",0
same,"Pyrexia Total, patients","TRAE, N = 37, May 10, 2019",4
same,"Pyrexia Total, percent of patients","TRAE, N = 37, May 10, 2019",(10) %
same,"Vomiting Grade 1, patients","TRAE, N = 37, May 10, 2019",4
same,"Vomiting Grade 1, percent of patients","TRAE, N = 37, May 10, 2019",(11) %
same,"Vomiting Grade 2, patients","TRAE, N = 37, May 10, 2019",1
same,"Vomiting Grade 2, percent of patients","TRAE, N = 37, May 10, 2019",(3) %
same,"Vomiting Grade 3, patients","TRAE, N = 37, May 10, 2019",0
same,"Vomiting Total, patients","TRAE, N = 37, May 10, 2019",5
same,"Vomiting Total, percent of patients","TRAE, N = 37, May 10, 2019",(14) %
same,grade of treatment-related adverse events (TRAEs),as of February 2019,Grade 1 or 2
same,most common TRAEs,as of February 2019,"anemia, arthralgias, fatigue, vomiting, anorexia, AST increase, diarrhea, dyspnea (unrelated or unlikely related), hypoalbuminema (unrelated or unlikely related), hypoxia (unrelated), headache, nausea, proteinuria and vomiting"
same,number of SAEs related to study drug,as of February 2019,Two
same,Grade 4 or 5 TRAE,"as of May 10, 2019",no Grade 4 or 5 TRAE
same,grade of adverse events,"as of May 10, 2019",most adverse events being Grade 1 or 2
same,number of SAEs unrelated or unlikely related to treatment,"as of May 10, 2019",Seventeen
same,number of possible treatment related SAEs,"as of May 10, 2019",Two
same,patients with SAEs unrelated or unlikely related to treatment,"as of May 10, 2019",11
same,tolerability,"as of May 10, 2019",well tolerated
same,"toxicities often associated with microtubule-targeting agents or ADCs (neutropenia, ocular toxicities, peripheral neuropathy)","as of May 10, 2019",Low rate
same,number of dose limiting toxicities,at DL 5A (30 mg/m^2) and DL 6 (40 mg/m^2),Two
same,MTD / RP2D,conclusions,Neither MTD nor RP2D has been identified
same,tolerability,maximum doses administered (40 mg/m^2),well tolerated
same,tolerability,up to the 30 mg/m^2 or 36 mg/m^2 or 43 mg/m^2 dose level,well-tolerated
